Measurements reported in patent US20240425589A1, “CYTOTOXICITY-INDUCING THERAPEUTIC AGENT FOR USE IN TREATMENT OF CANCER” (CHUGAI SEIYAKU KABUSHIKI KAISHA, priority 2021, published 2024).

B1: CS3348: anti-CLDN6/CD3 bispecific antibody, chains SEQ ID NOs 193, 195, 194, 192; used as control (protein)
chain 1: QVQLVESGGGVVQPGGSLRLSCAASGFTFSSYTMSWVREAPGQGLEWMGTISSGGGRTYYPDSVKGRFTISRDNSKNTLYLQMNSLRDEDTAVYYCARGDYRYDGFAYWGEGTLVTVSSASTKGPSVFPLAPSSKSTSGGTAALGCLVEDYFPEPVTVSWNSGALTSGVHTFPAVLESSGLYSLSSVVTVPSSSLGTQTYICNVNHKPSNTKVDERVEPKSCDKTHTCPPCPAPEAAGGPSVFLFPPKPKDTLMISRTPEVTCVVVDVSHEDPEVKFNWYVDGVEVHNAKTKPREEQYASTYRVVSVLTVLHQDWLNGKEYKCKVSNKALPAPIEKTISKAKGQPREPQVYTLPPSREEMTKNQVSLTCLVKGFYPSDIAVEWESNGQPENNYKTTPPVLDSDGSFFLYSKLTVDKSRWQQGNVFSCSVMHEALHNHYTQESLSLSP
chain 2: DIQMTQSPSSLSASVGDRVTITCRASYNIDSYLAWYQKKPGKAPELLIYYSTLLVDGVPDRFSGSRSGTDFTLTISSLQPEDFATYYCQHYYSIPYTFGQGTKVEIERTVAAPSVFIFPPSDKQLKSGTAKVVCLLNNFYPREAKVQWKVDNALQSGNSKESVTEQDSKDSTYSLSSTLTLSKADYEKHKVYACEVTHQGLSSPVTKSFNRGEC
chain 3: QVQLVESGGGVVQPGGSLRLSCAASGFTFSNAWMHWVRKAPGKGLEWVAQIKDKSQNYATYVAESVKGRFTISRADSKNSIYLQMNSLKTEDTAVYYCRYVHYAAGYGVDIWGQGTTVTVSSASTKGPSVFPLAPSSKSTSGGTAALGCLVKDYFPEPVTVSWNSGALTSGVHTFPAVLKSSGLYSLSSVVTVPSSSLGTQTYICNVNHKPSNTKVDKRVEPKSCDKTHTCPPCPAPEAAGGPSVFLFPPKPKDTLMISRTPEVTCVVVDVSHEDPEVKFNWYVDGVEVHNAKTKPREEQYASTYRVVSVLTVLHQDWLNGKEYKCKVSNKALPAPIEKTISKAKGQPREPQVYTLPPSRKEMTKNQVSLTCLVKGFYPSDIAVEWESNGQPENNYKTTPPVLDSDGSFFLYSKLTVDKSRWQQGNVFSCSVMHEALHNHYTQKSLSLSP
chain 4: DIVMTQSPLSLPVTPGEPASISCRSSQPLVHSNRNTYLHWYQEKPGQAPRLLIYKVSNRFSGVPDRFSGSGSGTDFTLKISRVEAEDVGVYYCGQGTQVPYTFGQGTKLEIKRTVAAPSVFIFPPSDEQLKSGTAEVVCLLNNFYPREAKVQWKVDNALQSGNSEESVTEQDSKDSTYSLSSTLELSKADYEKHKVYACEVTHQGLSSPVTKSFNRGEC
B2: CS2961: anti-CLDN6/CD3 bispecific antibody comprising CLDN6 binding Fv CLDN6AE25EK and a CD3 binding Fv (SEQ ID NOs 184, 185) (antibody, V domains shown)
VH: QVQLVESGGGVVQPGGSLRLSCAASGFTFSNAWMHWVRKAPGKGLEWVAQIKDKSQNYATYVAESVKGRFTISRADSKNSIYLQMNSLKTEDTAVYYCRYVHYAAGYGVDIWGQGTTVTVSS
VL: DIVMTQSPLSLPVTPGEPASISCRSSQPLVHSNRNTYLHWYQEKPGQAPRLLIYKVSNRFSGVPDRFSGSGSGTDFTLKISRVEAEDVGVYYCGQGTQVPYTFGQGTKLEIK
modifications: CLDN6 binding Fv CLDN6AE25EK lacks SEQ ID

Experiments:
[1] = Single dose toxicology study; assay type: in vivo, cynomolgus monkey; details: cynomolgus monkey, in vivo, iv
Procedure: Potential toxicity of PPU4135 antibody (anti-CLDN6/Dual-Fab tri-specific antibody) was evaluated in toxicity study using cynomolgus monkeys compared with CS3348 antibody (anti-CLDN6/CD3 bispecific antibody). Because both PPU4135 and CS3348 antibodies cross-reacted with their antigens of cynomolgus monkey, cynomolgus monkey was selected as the animal species for evaluations in the in vivo toxicology studies. Since toxicological findings seemed to be more sensitive in male than female animals in the toxicity study with CS3348 (FIG. 14), 2 males were used for evaluation of the PPU4135-mediated toxicity. In these studies, dose levels were set at 100 (for CS3348) or 90 (for PPU4135) micro g/kg, which were approximately 2.57-fold efficacious concentration producing 80% of the maximal response.

[2] = system: hCLDN6/BaF, hCLDN3/BaF, hCLDN4/BaF, and hCLDN9/BaF; experiment: FACS analysis of specificity against CLDN family; assay type: binding, human; details: 15 micro g/ml, compared with 6PHU3/TR01
Procedure: Amino acid sequences are highly conserved among CLDN3, CLDN4, CLDN6 and CLDN9. Thus we examined CLDN6 binding specificity of CLDN6 binding Fv comprising 65HQ39E as VH and 54L0532Q38K as VL, by FACS analysis. hCLDN6/BaF, hCLDN3/BaF, hCLDN4/BaF, and hCLDN9/BaF were incubated with an anti-CLDN6/CD3 bispecific antibody (CS2961) comprising the CLDN6 binding Fv CLDN6AE25EK and a CD3 binding Fv (heavy chain variable region SEQ ID NO: 184, light chain variable region SEQ ID NO: 185) at 15 micro g/ml. Another anti-CLDN6/CD3 bispecific antibody (6PHU3/TR01) and an antibody without binding capability to CLDN6 (KLH/TR01) were used as a staining control. 6PHU3/TR01 and KLH/TR01 comprise the same CD3 binding Fv (heavy chain variable region SEQ ID No: 188, light chain variable region SEQ ID NO: 189). The CLDN6 binding Fv of 6PHU3/TR01 comprises a heavy chain variable region shown in SEQ ID NO: 190 and a light chain variable region shown in SEQ ID NO: 191. KLH/TR01 comprises a KLH binding Fv (heavy chain variable region SEQ ID NO: 186, light chain variable region SEQ ID NO: 187).
Binding of each antibody was detected with Alexa Fluor 488-conjugated anti human IgG (Invitrogen). Dead cells were separated by eFlour 780 (Invitrogen) staining. […]

| Molecule | AST, ALT, GLDH, ALP, TBIL, GGT, TBA and CRP [1] | specificity towards CLDN6 among CLDN3, CLDN4, CLDN6, CLDN9 [2] |
| --- | --- | --- |
| B1 | Increased | – |
| B2 | – | better specificity towards CLDN6 |
